The results in this text go back to US20230060095A1 (Regeneron, published 2023).

Numbering of substitutions follows the chain as printed.

First the molecules themselves.
T1: PRAME peptide on HLA-A*02:01 (human)
T1 peptide: RLDQLLRHV

T2: PRAME peptide on HLA-A*02:01 (human)
T2 peptide: SLLQHLIGL

T3: peptide on HLA-A*02:01 (human)
T3 peptide: SLLMWITQC

B1: PN42774 (TCR, V domains shown)
V domain 1: QKEVEQNSGPLSVPEGAIASLNCTYSDRGSQSFFWYRQYSGKSPELIMSIYSNGDKEDGRFTAQLNKASQYVSLLIRDSQPSDSATYLCAVNRGTDKLIFGTGTRLQVFP
V domain 2: DAGVTQSPTHLIKTRGQQVTLRCSPKSGHDTVSWYQQALGQGPQFIFQYYEEEERQRGNFPDRFSGHQFPNYSSELNVNALLLGDSALYLCASSWTDYGYTFGSGTRLTVV
B2: PN42795 (TCR, V domains shown)
V domain 1: RKEVEQDPGPFNVPEGATVAFNCTYSNSASQSFFWYRQDCRKEPKLLMSVYSSGNEDGRFTAQLNRASQYISLLIRDSKLSDSATYLCVVNGGSQGNLIFGKGTKLSVKP
V domain 2: B1 V domain 2 with W95V, T96G
B3: PN42870 (TCR, V domains shown)
V domain 1: TQLLEQSPQFLSIQEGENLTVYCNSSSVFSSLQWYRQEPGEGPVLLVTVVTGGEVKKLKRLTFQFGDARKDSSLHITAAQPGDTGLYLCAENSGGGADGLTFGKGTHLIIQP
V domain 2: B1 V domain 2 with W95F
B4: PN42558 (TCR, V domains shown)
V domain 1: GIQVEQSPPDLILQEGANSTLRCNFSDSVNNLQWFHQNPWGQLINLFYIPSGTKQNGRLSATTVATERYSLLYISSSQTTDSGVYFCVLGGGSQGNLIFGKGTKLSVKP
V domain 2: B1 V domain 2 with W95F
B5: PN42450 (TCR, V domains shown)
V domain 1: AQRVTQPEKLLSVFKGAPVELKCNYSYSGSPELFWYVQYSRQRLQLLLRHISRESIKGFTADLNKGETSFHLKKPFAQEEDSAMYYCALGNTDKLIFGTGTRLQVFP
V domain 2: DVKVTQSSRYLVKRTGEKVFLECVQDMDHENMFWYRQDPGLGLRLIYFSYDVKMKEKGDIPEGYSVSREKKERFSLILESASTNQTSMYLCASSSPRTGWYGYTFGSGTRLTVV
B6: PN42845 (TCR, V domains shown)
V domain 1: TQLLEQSPQFLSIQEGENLTVYCNSSSVFSSLQWYRQEPGEGPVLLVTVVTGGEVKKLKRLTFQFGDARKDSSLHITAAQPGDTGLYLCAGIRSNDYKLSFGAGTTVTVRA
V domain 2: EAQVTQNPRYLITVTGKKLTVTCSQNMNHEYMSWYRQDPGLGLRQIYYSMNVEVTDKGDVPEGYKVSRKEKRNFPLILESPSPNQTSLYFCASSSWTAHTEAFFGQGTRLTVV
B7: PN42762 (TCR, V domains shown)
V domain 1: DAKTTQPNSMESNEEEPVHLPCNHSTISGTDYIHWYRQLPSQGPEYVIHGLTSNVNNRMASLAIAEDRKSSTLILHRATLRDAAVYYCILNTGTASKLTFGTGTRLQVTL
V domain 2: EAQVTQNPRYLITVTGKKLTVTCSQNMNHEYMSWYRQDPGLGLRQIYYSMNVEVTDKGDVPEGYKVSRKEKRNFPLILESPSPNQTSLYFCASSLSSNTEAFFGQGTRLTVV
B8: PN42826 (TCR, V domains shown)
V domain 1: DQQVKQNSPSLSVQEGRISILNCDYTNSMFDYFLWYKKYPAEGPTFLISISSIKDKNEDGRFTVFLNKSAKHLSLHIVPSQPGDSAVYFCAASAGSARQLTFGSGTQLTVLP
V domain 2: B7 V domain 2 with S96Y, S97T, N98H
B9: PN42441 (TCR, V domains shown)
V domain 1: DAKTTQPNSMESNEEEPVHLPCNHSTISGTDYIHWYRQLPSQGPEYVIHGLTSNVNNRMASLAIAEDRKSSTLILHRATLRDAAVYYCIRRPGNQFYFGTGTSLTVIP
V domain 2: B7 V domain 2 with S96W, S97T, N98G, T99S
B10: PN42815 (TCR, V domains shown)
V domain 1: GESVGLHLPTLSVQEGDNSIINCAYSNSASDYFIWYKQESGKGPQFIIDIRSNMDKRQGQRVTVLLNKTVKHLSLQIAATQPGDSAVYFCAENNYGQNFVFGPGTRLSVLP
V domain 2: B7 V domain 2 with S96W, S97D, N98S, T99S, E100P, A101L, F102H, Q105N, V112T
notes: the summary and claims print the pair as 893/805
B11: PN42895 (TCR, V domains shown)
V domain 1: B8 V domain 1 with N7S
V domain 2: B7 V domain 2 with S96W
B12: PN42833 (TCR, V domains shown)
V domain 1: DAKTTQPPSMDCAEGRAANLPCNHSTISGNEYVYWYRQIHSQGPQYIIHGLKNNETNEMASLIITEDRKSSTLILPHATLRDTAVYYCIVRDTTSGTYKYIFGTGTRLKVLA
V domain 2: EAQVTQNPRYLITVTGKKLTVTCSQNMNHEYMSWYRQDPGLGLRQIYYSMNVEVTDKGDVPEGYKVSRKEKRNFPLILESPSPNQTSLYFCASSLSSTGFSPLHFGNGTRLTVT
B13: PN46909 (TCR, V domains shown)
V domain 1: AQTVTQSQPEMSVQEAETVTLSCTYDTSENNYYLFWYKQPPSRQMILVIRQEAYKQQNATENRFSVNFQKAAKSFSLKISDSQLGDTAMYFCAFDYGQNFVFGPGTRLSVLP
V domain 2: NAGVTQTPKFRILKIGQSMTLQCAQDMNHNYMYWYRQDPGMGLKLIYYSVGAGITDKGEVPNGYNVSRSTTEYFPLRLELAAPSQTSVYFCASSYGGGQTEAFFGQGTRLTVV
notes: stained with anti-mouse TCR constant region antibody H57-597) and full-length chains were expressed on CHO cells
B14: PN46883 (TCR, V domains shown)
V domain 1: AQKVTQAQTEISVVEKEDVTLDCVYETRDTTYYLFWYKQPPSGELVFLIRRNSFDEQNEISGRYSWNFQKSTSSFNFTITASQVVDSAVYFCALSVSSYNTDKLIFGTGTRLQVFP
V domain 2: NAGVMQNPRHLVRRRGQEARLRCSPMKGHSHVYWYRQLPEEGLKFMVYLQKENIIDESGMPKERFSAEFPKEGPSILRIQQVVRGDSAAYFCASSHRDDTEAFFGQGTRLTVV
notes: as for B13
B15: PN46880 (TCR, V domains shown)
V domain 1: AQRVTQPEKLLSVFKGAPVELKCNYSYSGSPELFWYVQYSRQRLQLLLRHISRESIKGFTADLNKGETSFHLKKPFAQEEDSAMYYCALSGASGGSYIPTFGRGTSLIVHP
V domain 2: B14 V domain 2
notes: as for B13
B16: PN46857 (TCR, V domains shown)
V domain 1: AQKVTQATREISVVEKEDVTLDCVYETRDTTYYLFWYKQPPSGELVFLIRRNSFDEQNEISGRYSWNFQKSTSSFNFTITASQVVDSAVYFCALSEGYGNKLVFGAGTILRVKS
V domain 2: B14 V domain 2
notes: as for B13

The target in one test is HLA-A2/PRAME (425-433) on HLA-A2*01 HEK293T cells pulsed with PRAME 425-433 peptide (human). The test can be described thus: cell-based or functional assay.
For B1, the “EC50 (µM) of peptide, AP1 luciferase reporter in Jurkat cells expressing the TCR” value (“EC50 (µM) of peptide” for short) is 0.876 µM.

B2: the “EC50 (µM) of peptide” value stood at 0.245 µM.

As to B3, the “EC50 (µM) of peptide” value is 0.13 µM.

B4: the “EC50 (µM) of peptide” value turned out to be 0.261 µM.

Consider B5, for which the “EC50 (µM) of peptide” value amounted to 0.0336 µM.

For the molecule B6, the “EC50 (µM) of peptide” value worked out at 0.911 µM.

Take B7: the “EC50 (µM) of peptide” value came to 115 µM.

For the molecule B8, the “EC50 (µM) of peptide” value was 4.92 µM.

As for B9, the “EC50 (µM) of peptide” value is 0.821 µM.

B10: the “EC50 (µM) of peptide” value was 0.126 µM.

Consider B11, for which the “EC50 (µM) of peptide” value stood at 0.94 µM.

In the case of B12, the “EC50 (µM) of peptide” value is 0.0479 µM.

Another test has as its target T1, PRAME peptide on HLA-A*02:01. In words: multimer staining.
With B13, the binding result is “recognises”.

Regarding B14, the binding result is “recognises”.

For B15, the binding result is recorded as “recognises”.

Regarding B16, the binding result is reported as “recognises”.

A further test has as its target T2, PRAME peptide on HLA-A*02:01. The test can be described thus: multimer staining.
As for B1, the binding result is “recognises”.

Regarding B2, the binding result is given as “recognises”.

With B3, the binding result is on record as “recognises”.

Regarding B4, the binding result is recorded as “recognises”.

As for B5, the binding result was “recognises”.

For B6, the binding result was “recognises”.

B7: the binding result is recorded as “recognises”.

Turning to B8, the binding result was “recognises”.

As for B9, the binding result was “recognises”.

Consider B10, for which the binding result is reported as “recognises”.

In the case of B11, the binding result was “recognises”.

Turning to B12, the binding result was “recognises”.

The next test has as its target T3, peptide on HLA-A*02:01. The test can be described thus: activation reporter or marker.
With B1, the binding result is “no recognition”.

As for B2, the binding result is “no recognition”.

Consider B3, for which the binding result is “no recognition”.

Regarding B4, the binding result was “no recognition”.

In the case of B5, the binding result was “no recognition”.

As for B6, the binding result is listed as “no recognition”.

B7: the binding result was “no recognition”.

Turning to B8, the binding result is on record as “no recognition”.

Regarding B9, the binding result is listed as “no recognition”.

B10: the binding result is listed as “no recognition”.

Turning to B11, the binding result was “no recognition”.

With B12, the binding result is on record as “no recognition”.

The target of a further test is T4, soluble HLA-A2:PRAME (312-320) tetramer (human).
T4 construct: Commercial tetramer (MBL International); construct limits, biotin tag and streptavidin/fluorophore not described; also called PRAME/HLA tetramer reagent
The test can be described thus: flow cytometry, soluble pMHC tetramer on CHO cells expressing the TCR.
For the molecule B13, the “Cell Frequency ≥1000 MFI, ≥1% (% tetramer positive cells in the Ag+ gate)” value turned out to be 52.6%.

Consider B14, for which the “Cell Frequency ≥1000 MFI, ≥1% (% tetramer positive cells in the Ag+ gate)” value turned out to be 64.7%.

B15: the “Cell Frequency ≥1000 MFI, ≥1% (% tetramer positive cells in the Ag+ gate)” value came out at 31.9%.

Consider B16, for which the “Cell Frequency ≥1000 MFI, ≥1% (% tetramer positive cells in the Ag+ gate)” value amounted to 53.9%.

The target of a further test is T5, soluble HLA:A2:PRAME (425-433) tetramer (human).
T5 construct: Commercial tetramer (MBL International); construct limits, biotin tag and streptavidin/fluorophore not described; also called PRAME/HLA tetramer reagent; PRAME (425-433)/HLA-A2
Described as above.
Take B1: the “Cell Frequency ≥1000 MFI, ≥1% (% tetramer positive cells in the Ag+ gate)” value turned out to be 91.6%.

In the case of B2, the “Cell Frequency ≥1000 MFI, ≥1% (% tetramer positive cells in the Ag+ gate)” value stood at 49.4%.

As for B3, the “Cell Frequency ≥1000 MFI, ≥1% (% tetramer positive cells in the Ag+ gate)” value was 7.27%.

Consider B4, for which the “Cell Frequency ≥1000 MFI, ≥1% (% tetramer positive cells in the Ag+ gate)” value was found to be 85.7%.

Turning to B5, the “Cell Frequency ≥1000 MFI, ≥1% (% tetramer positive cells in the Ag+ gate)” value came to 62.2%.

In the case of B6, the “Cell Frequency ≥1000 MFI, ≥1% (% tetramer positive cells in the Ag+ gate)” value was determined as 10.5%.

B7: the “Cell Frequency ≥1000 MFI, ≥1% (% tetramer positive cells in the Ag+ gate)” value was 4.95%.

For B8, the “Cell Frequency ≥1000 MFI, ≥1% (% tetramer positive cells in the Ag+ gate)” value was found to be 9.26%.

Consider B9, for which the “Cell Frequency ≥1000 MFI, ≥1% (% tetramer positive cells in the Ag+ gate)” value came to 15.5%.

B10: the “Cell Frequency ≥1000 MFI, ≥1% (% tetramer positive cells in the Ag+ gate)” value amounted to 4.35%.

Take B11: the “Cell Frequency ≥1000 MFI, ≥1% (% tetramer positive cells in the Ag+ gate)” value came out at 4.09%.

Regarding B12, the “Cell Frequency ≥1000 MFI, ≥1% (% tetramer positive cells in the Ag+ gate)” value stood at 6.86%.
